Sequences and labels used below:
B1: scTRAIL3-FAVGGAA (ligand)
chain: LDDYKDDDDKEFGGAAAHITGTRGRSNTLSSPNSKNEKALGRKINSWESSRSGHSFLSNLHLRNGELVIHEKGFYYIYSQTYFRFQEEIKENTKNDKQMVQYIYKYTSYPDPILLMKSARNSCWSKDAEYGLYSIYQGGIFELKENDRIFVSVTNEHLIDMDHEASFFGAFAVGGAAAHITGTRGRSNTLSSPNSKNEKALGRKINSWESSRSGHSFLSNLHLRNGELVIHEKGFYYIYSQTYFRFQEEIKENTKNDKQMVQYIYKYTSYPDPILLMKSARNSCWSKDAEYGLYSIYQGGIFELKENDRIFVSVTNEHLIDMDHEASFFGAFAVGGAAAHITGTRGRSNTLSSPNSKNEKALGRKINSWESSRSGHSFLSNLHLRNGELVIHEKGFYYIYSQTYFRFQEEIKENTKNDKQMVQYIYKYTSYPDPILLMKSARNSCWSKDAEYGLYSIYQGGIFELKENDRIFVSVTNEHLIDMDHEASFFGAFAVG
B2: scTRAIL3-FAVGGIA (protein)
chain: MDWTWRVFCLLAVAPGAHSLDDYKDDDDKEFGGAAAHITGTRGRSNTLSSPNSKNEKALGRKINSWESSRSGHSFLSNLHLRNGELVIHEKGFYYIYSQTYFRFQEEIKENTKNDKQMVQYIYKYTSYPDPILLMKSARNSCWSKDAEYGLYSIYQGGIFELKENDRIFVSVTNEHLIDMDHEASFFGAFLVGGAAAHITGTRGRSNTLSSPNSKNEKALGRKINSWESSRSGHSFLSNLHLRNGELVIHEKGFYYIYSQTYFRFQEEIKENTKNDKQMVQYIYKYTSYPDPILLMKSARNSCWSKDAEYGLYSIYQGGIFELKENDRIFVSVTNEHLIDMDHEASFFGAFLVGGAAAHITGTRGRSNTLSSPNSKNEKALGRKINSWESSRSGHSFLSNLHLRNGELVIHEKGFYYIYSQTYFRFQEEIKENTKNDKQMVQYIYKYTSYPDPILLMKSARNSCWSKDAEYGLYSIYQGGIFELKENDRIFVSVTNEHLIDMDHEASFFGAFLVG
B3: scTRAIL3-FIVGGIA (protein)
chain: B2 chain with L191A, L352A, L513A
B4: scTRAIL3-FAVSGAA (protein)
chain: B2 chain with L191A, G193S, L352A, G354S, L513A, G515S
B5: scTRAIL3-FIVSGIA (protein)
chain: B2 chain with A34I, L191I, A195I, L352I, A356I, L513I
B6: scTRAIL3-FLVSGIA (protein)
chain: B2 chain with A34I, L191A, A195I, L352A, A356I, L513A
B7: scTRAIL3-FLVGGVA (ligand)
chain: B1 chain with A15V, A172L, A176V, A333L, A337V, A494L
B8: scTRAIL3-FLVGGAA (ligand)
chain: B1 chain with A172L, A333L, A494L
B9: Db10-Glyco-scTRAIL3-FAVSGAA (other)
chain: LEASDYKDDDDKGAEVQLVESGGGLVQPGGSLRLSCAASGFSLTNYGVHWVRQAPGKGLEWLGVIWSGGNTDYNTPFTSRFTISRDNSKNTLYLQMNSLRAEDTAVYYCARALTYYDYEFAYWGQGTTVTVSSGGGGSGGGGSDIQLTQSPSFLSASVGDRVTITCRASQSIGTNIHWYQQKPGKAPKLLIKYASESISGVPSRFSGSGSGTEFTLTISSLQPEDFATYYCQQNNNWPTTFGAGTKLEIKRAAAGNGTSNGTSEFGGAAAHITGTRGRSNTLSSPNSKNEKALGRKINSWESSRSGHSFLSNLHLRNGELVIHEKGFYYIYSQTYFRFQEEIKENTKNDKQMVQYIYKYTSYPDPILLMKSARNSCWSKDAEYGLYSIYQGGIFELKENDRIFVSVTNEHLIDMDHEASFFGAFAVSGAAAHITGTRGRSNTLSSPNSKNEKALGRKINSWESSRSGHSFLSNLHLRNGELVIHEKGFYYIYSQTYFRFQEEIKENTKNDKQMVQYIYKYTSYPDPILLMKSARNSCWSKDAEYGLYSIYQGGIFELKENDRIFVSVTNEHLIDMDHEASFFGAFAVSGAAAHITGTRGRSNTLSSPNSKNEKALGRKINSWESSRSGHSFLSNLHLRNGELVIHEKGFYYIYSQTYFRFQEEIKENTKNDKQMVQYIYKYTSYPDPILLMKSARNSCWSKDAEYGLYSIYQGGIFELKENDRIFVSVTNEHLIDMDHEASFFGAFAVS
modifications: glycosylated connecting peptide
B10: Db8-Glyco-scTRAIL3-FAVSGAA (other)
chain: LEASDYKDDDDKGAEVQLVESGGGLVQPGGSLRLSCAASGFSLTNYGVHWVRQAPGKGLEWLGVIWSGGNTDYNTPFTSRFTISRDNSKNTLYLQMNSLRAEDTAVYYCARALTYYDYEFAYWGQGTTVTVSSGGGGSGGGDIQLTQSPSFLSASVGDRVTITCRASQSIGTNIHWYQQKPGKAPKLLIKYASESISGVPSRFSGSGSGTEFTLTISSLQPEDFATYYCQQNNNWPTTFGAGTKLEIKRAAAGNGTSNGTSEFGGAAAHITGTRGRSNTLSSPNSKNEKALGRKINSWESSRSGHSFLSNLHLRNGELVIHEKGFYYIYSQTYFRFQEEIKENTKNDKQMVQYIYKYTSYPDPILLMKSARNSCWSKDAEYGLYSIYQGGIFELKENDRIFVSVTNEHLIDMDHEASFFGAFAVSGAAAHITGTRGRSNTLSSPNSKNEKALGRKINSWESSRSGHSFLSNLHLRNGELVIHEKGFYYIYSQTYFRFQEEIKENTKNDKQMVQYIYKYTSYPDPILLMKSARNSCWSKDAEYGLYSIYQGGIFELKENDRIFVSVTNEHLIDMDHEASFFGAFAVSGAAAHITGTRGRSNTLSSPNSKNEKALGRKINSWESSRSGHSFLSNLHLRNGELVIHEKGFYYIYSQTYFRFQEEIKENTKNDKQMVQYIYKYTSYPDPILLMKSARNSCWSKDAEYGLYSIYQGGIFELKENDRIFVSVTNEHLIDMDHEASFFGAFAVS
modifications: glycosylated connecting peptide
B11: Db-Glyco-scTRAIL3-FAVSGAA (other)
chain: LEASDYKDDDDKGAEVQLVESGGGLVQPGGSLRLSCAASGFSLTNYGVHWVRQAPGKGLEWLGVIWSGGNTDYNTPFTSRFTISRDNSKNTLYLQMNSLRAEDTAVYYCARALTYYDYEFAYWGQGTTVTVSSGGGGSDIQLTQSPSFLSASVGDRVTITCRASQSIGTNIHWYQQKPGKAPKLLIKYASESISGVPSRFSGSGSGTEFTLTISSLQPEDFATYYCQQNNNWPTTFGAGTKLEIKRAAAGNGTSNGTSEFGGAAAHITGTRGRSNTLSSPNSKNEKALGRKINSWESSRSGHSFLSNLHLRNGELVIHEKGFYYIYSQTYFRFQEEIKENTKNDKQMVQYIYKYTSYPDPILLMKSARNSCWSKDAEYGLYSIYQGGIFELKENDRIFVSVTNEHLIDMDHEASFFGAFAVSGAAAHITGTRGRSNTLSSPNSKNEKALGRKINSWESSRSGHSFLSNLHLRNGELVIHEKGFYYIYSQTYFRFQEEIKENTKNDKQMVQYIYKYTSYPDPILLMKSARNSCWSKDAEYGLYSIYQGGIFELKENDRIFVSVTNEHLIDMDHEASFFGAFAVSGAAAHITGTRGRSNTLSSPNSKNEKALGRKINSWESSRSGHSFLSNLHLRNGELVIHEKGFYYIYSQTYFRFQEEIKENTKNDKQMVQYIYKYTSYPDPILLMKSARNSCWSKDAEYGLYSIYQGGIFELKENDRIFVSVTNEHLIDMDHEASFFGAFAVS
modifications: two N-glycosylation sites in the peptide AAAGNGTSNGTSEFGG, shown to be glycosylated
B12: Db-Glyco-scTRAIL3-FAVSGIA (other)
chain: B11 chain with A263I, A424I, A585I
modifications: glycosylated connecting peptide
B13: Db-Glyco-scTRAIL-95L8 (other)
chain: TSEETISTVQEKQQNISPLVRERGPQRVAAHITGTRGRSNTLSSPNSKNEKALGRKINSWESSRSGHSFLSNLHLRNGELVIHEKGFYYIYSQTYFRFQEEIKENTKNDKQMVQYIYKYTSYPDPILLMKSARNSCWSKDAEYGLYSIYQGGIFELKENDRIFVSVTNEHLIDMDHEASFFGAFLVGGGGSGGGSTSEETISTVQEKQQNISPLVRERGPQRVAAHITGTRGRSNTLSSPNSKNEKALGRKINSWESSRSGHSFLSNLHLRNGELVIHEKGFYYIYSQTYFRFQEEIKENTKNDKQMVQYIYKYTSYPDPILLMKSARNSCWSKDAEYGLYSIYQGGIFELKENDRIFVSVTNEHLIDMDHEASFFGAFLVGGGGSGGGSTSEETISTVQEKQQNISPLVRERGPQRVAAHITGTRGRSNTLSSPNSKNEKALGRKINSWESSRSGHSFLSNLHLRNGELVIHEKGFYYIYSQTYFRFQEEIKENTKNDKQMVQYIYKYTSYPDPILLMKSARNSCWSKDAEYGLYSIYQGGIFELKENDRIFVSVTNEHLIDMDHEASFFGAFLVG

Residue numbers refer to the chain shown, from its start.

The target of the first experiment is TRAIL-R2-Fc (human, UniProt O14763 56-210). The experiment in a line: ELISA.
In the case of B1, the EC50 amounted to 5.25 nM.
Same read-out and setting: with B2 the figure was 8.82 nM; with B3, 4.82 nM.
Still for that read-out and setting: with B4 the figure was 5.69 nM; with B5, 6.7 nM.
The same measure, in the same setting: the value for B6 was 17.5 nM.

For another experiment, the target named is Colo 205. Description: flow cytometry; Colo205 cells. (A flow cytometer gives signals particle by particle.)
In turn, B1 displayed an EC50 of 4.1 nM.
On the same count and under the same terms, the value for B7 was 12.7 nM; that for B8 was 4.2 nM.

The next experiment addresses HT1080. The experiment in a line: flow cytometry; HT1080 cells.
Turning to B9, the EC50 is 3 nM.
Take B10: a half-maximal effect (EC50) was put at 1.9 nM. This EC50 lies about 1.6-fold lower than the previous one.
The same measure, in the same setting: the value for B11 was 2.6 nM; that for B12 was 4.3 nM.
The same measure, in the same setting: with B13 the figure was 0.6 nM.

As a reminder, the EC50 is the concentration that produces a half-maximal response. Lower therefore signals greater potency.

(Values after US20180094059A1 (published 2018).)
